Measured values as given in paper PMC3422313.

Experiments:
[1] = biological target: p24:V3 CC mutant (chimeric p24:V3 protein with A14C/E45C in the p24 sequence) (HIV) (UniProt P12493); experiment: cross-linking; disulfide cross-linking by dialysis into assembly buffer (50 mM Tris pH 8, 1 M NaCl) with beta ME reduced to 20 mM or lower; read by non-reducing SDS-PAGE, 10% gel
[2] = biological target: human monoclonal anti-V3 antibody 447-52D (ARP3219) (human); experiment: SPR; BIAcore 3000; mAb 447-52D immobilised on CM5 by EDC/NHS (about 2000 RU); p24:V3 proteins as analyte 0.10-4.0 uM; HBS (10 mM Hepes, 150 mM NaCl, 3 mM EDTA, pH 7.4), 0.1 mM TCEP; 20 ul/min; 25 C; 1:1 Langmuir fit
human monoclonal anti-V3 antibody 447-52D (ARP3219) (human), sequence (heavy, as listed by the source, chain 1 of 2): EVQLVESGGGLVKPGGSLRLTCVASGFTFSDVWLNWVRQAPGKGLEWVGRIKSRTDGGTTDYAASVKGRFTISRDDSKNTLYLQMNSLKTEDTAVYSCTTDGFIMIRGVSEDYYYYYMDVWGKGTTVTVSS
human monoclonal anti-V3 antibody 447-52D (ARP3219) (human), sequence (light, as listed by the source, chain 2 of 2): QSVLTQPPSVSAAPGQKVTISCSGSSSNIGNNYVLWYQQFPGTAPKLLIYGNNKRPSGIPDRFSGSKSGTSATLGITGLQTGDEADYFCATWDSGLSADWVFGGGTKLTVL

[3] = biological target: p24:V3 CCAA mutant (chimeric p24:V3 protein with A14C/E45C/W184A/M185A in the p24 sequence) (HIV); experiment: SEC; Superdex-200 PC; 30 mM Tris pH 8.0, 300 mM NaCl, 2 mM bME; 0.04 mL/min; compared with aldolase (158 kDa) and ferritin (440 kDa)
[4] = biological target: p24:V3 CCAA mutant (chimeric p24:V3 protein with A14C/E45C/W184A/M185A in the p24 sequence) (HIV); experiment: cross-linking; disulfide cross-linking by dialysis into assembly buffer (50 mM Tris pH 8, 1 M NaCl) with beta ME reduced to 20 mM or lower; read by non-reducing SDS-PAGE, 10% gel
[5] = biological target: p24:V3 WT chimera (HIV p24 CA protein with the full V3 loop in place of the cyclophillin binding loop) (HIV) (UniProt P12493); experiment: SEC; Superdex-200 PC; 30 mM Tris pH 8.0, 300 mM NaCl, 2 mM bME; 0.04 mL/min; compared with aldolase (158 kDa) and ferritin (440 kDa)

| Substance | stoichiometry N [1] | Kd [2] | stoichiometry N [3] | stoichiometry N [4] | stoichiometry N [5] |
| --- | --- | --- | --- | --- | --- |
| p24:V3 CC mutant (chimeric p24:V3 protein with A14C/E45C in the p24 sequence) (from UniProt P12493 101-500) | 6 | 13.4 µM | – | – | – |
| p24:V3 CCAA mutant (chimeric p24:V3 protein with A14C/E45C/W184A/M185A in the p24 sequence) | – | – | 6 | 6 | – |
| p24:V3 WT chimera (HIV p24 CA protein with the full V3 loop in place of the cyclophillin binding loop) (from UniProt P12493 1-85; P12493 101-500) | – | 10.1 µM | – | – | 6 |
